The text below walks through data of article PMC2757159 (Biochemistry, 2009).

The data set deals with the molecule itself. The data set can be described thus: SEC. Background: Size exclusion chromatography separates by hydrodynamic size, large species first.

B1: human H46R/H48Q copper-zinc superoxide dismutase (SOD1) double mutant (enzyme)
chain: not shown
What is called stoichiometry N is the number of molecules, sites or subunits per partner or assembly. With B1, the “stoichiometry N” value came out at 2.
